From patent US11795460B2, “Compositions and methods for TTR gene editing and treating ATTR amyloidosis” (Intellia Therapeutics, Inc., priority 2017, dated 2023)
Strand notation (5' to 3'): a small letter for the sugar, then the base; units joined by * are phosphorothioate-linked, units joined directly phosphodiester-linked; [ ] holds rarer units or linkages, { } end groups; capitals alone tell only the bases. m = 2'-O-methyl; r = 2'-OH (RNA)

B1: G000571: TTR sgRNA modified sequence, Human, SEQ ID No. 112; guide sequence of CR005301 (nucleic acid)
guide: mG*mU*mC*rArCrArGrArArArCrArCrUrCrArCrCrGrUrGrUrUrUrUrArGrAmGmCmUmAmGmAmAmAmUmAmGmCrArArGrUrUrArArArArUrArArGrGrCrUrArGrUrCrCrGrUrUrArUrCrAmAmCmUmUmGmAmAmAmAmAmGmUmGmGmCmAmCmCmGmAmGmUmCmGmGmUmGmCmU*mU*mU*mU
B2: G000502: TTR Cyno specific sgRNA modified sequence, SEQ ID No. 114; guide sequence of CR000689; cross homologous between mouse and cyno (nucleic acid)
guide: mA*mC*mA*rCrArArArUrArCrCrArGrUrCrCrArGrCrGrGrUrUrUrUrArGrAmGmCmUmAmGmAmAmAmUmAmGmCrArArGrUrUrArArArArUrArArGrGrCrUrArGrUrCrCrGrUrUrArUrCrAmAmCmUmUmGmAmAmAmAmAmGmUmGmGmCmAmCmCmGmAmGmUmCmGmGmUmGmCmU*mU*mU*mU
B3: G000481: TTR sgRNA modified sequence, Human, SEQ ID No. 88; guide sequence of CR003345 (nucleic acid)
guide: mU*mC*mU*rArGrArArCrUrUrUrGrArCrCrArUrCrArGrGrUrUrUrUrArGrAmGmCmUmAmGmAmAmAmUmAmGmCrArArGrUrUrArArArArUrArArGrGrCrUrArGrUrCrCrGrUrUrArUrCrAmAmCmUmUmGmAmAmAmAmAmGmUmGmGmCmAmCmCmGmAmGmUmCmGmGmUmGmCmU*mU*mU*mU
B4: G000487: TTR sgRNA modified sequence, Human, SEQ ID No. 94; guide sequence of CR003357 (nucleic acid)
guide: mU*mU*mC*rUrUrUrGrGrCrArArCrUrUrArCrCrCrArGrGrUrUrUrUrArGrAmGmCmUmAmGmAmAmAmUmAmGmCrArArGrUrUrArArArArUrArArGrGrCrUrArGrUrCrCrGrUrUrArUrCrAmAmCmUmUmGmAmAmAmAmAmGmUmGmGmCmAmCmCmGmAmGmUmCmGmGmUmGmCmU*mU*mU*mU
B5: G000482: TTR sgRNA modified sequence, Human, SEQ ID No. 89; guide sequence of CR003365 (nucleic acid)
guide: mU*mG*mU*rArGrArArGrGrGrArUrArUrArCrArArArGrGrUrUrUrUrArGrAmGmCmUmAmGmAmAmAmUmAmGmCrArArGrUrUrArArArArUrArArGrGrCrUrArGrUrCrCrGrUrUrArUrCrAmAmCmUmUmGmAmAmAmAmAmGmUmGmGmCmAmCmCmGmAmGmUmCmGmGmUmGmCmU*mU*mU*mU
B6: G000489: TTR sgRNA modified sequence, Human, SEQ ID No. 96; guide sequence of CR003344 (nucleic acid)
guide: mU*mU*mU*rGrArCrCrArUrCrArGrArGrGrArCrArCrUrGrUrUrUrUrArGrAmGmCmUmAmGmAmAmAmUmAmGmCrArArGrUrUrArArArArUrArArGrGrCrUrArGrUrCrCrGrUrUrArUrCrAmAmCmUmUmGmAmAmAmAmAmGmUmGmGmCmAmCmCmGmAmGmUmCmGmGmUmGmCmU*mU*mU*mU
B7: G000486: TTR sgRNA modified sequence, Human, SEQ ID No. 93; guide sequence of CR003339 (nucleic acid)
guide: mA*mC*mA*rCrArArArUrArCrCrArGrUrCrCrArGrCrArGrUrUrUrUrArGrAmGmCmUmAmGmAmAmAmUmAmGmCrArArGrUrUrArArArArUrArArGrGrCrUrArGrUrCrCrGrUrUrArUrCrAmAmCmUmUmGmAmAmAmAmAmGmUmGmGmCmAmCmCmGmAmGmUmCmGmGmUmGmCmU*mU*mU*mU
B8: G000494: TTR sgRNA modified sequence, Human, SEQ ID No. 101; guide sequence of CR003360 (nucleic acid)
guide: mG*mU*mG*rArGrUrCrUrGrGrArGrArGrCrUrGrCrArUrGrUrUrUrUrArGrAmGmCmUmAmGmAmAmAmUmAmGmCrArArGrUrUrArArArArUrArArGrGrCrUrArGrUrCrCrGrUrUrArUrCrAmAmCmUmUmGmAmAmAmAmAmGmUmGmGmCmAmCmCmGmAmGmUmCmGmGmUmGmCmU*mU*mU*mU
B9: G000496: TTR sgRNA modified sequence, Human, SEQ ID No. 103; guide sequence of CR005304 (nucleic acid)
guide: mG*mG*mC*rCrGrUrGrCrArUrGrUrGrUrUrCrArGrArArGrUrUrUrUrArGrAmGmCmUmAmGmAmAmAmUmAmGmCrArArGrUrUrArArArArUrArArGrGrCrUrArGrUrCrCrGrUrUrArUrCrAmAmCmUmUmGmAmAmAmAmAmGmUmGmGmCmAmCmCmGmAmGmUmCmGmGmUmGmCmU*mU*mU*mU
B10: G000499: TTR sgRNA modified sequence, Human, SEQ ID No. 106; guide sequence of CR005303 (nucleic acid)
guide: mU*mG*mA*rArUrCrCrArArGrUrGrUrCrCrUrCrUrGrArGrUrUrUrUrArGrAmGmCmUmAmGmAmAmAmUmAmGmCrArArGrUrUrArArArArUrArArGrGrCrUrArGrUrCrCrGrUrUrArUrCrAmAmCmUmUmGmAmAmAmAmAmGmUmGmGmCmAmCmCmGmAmGmUmCmGmGmUmGmCmU*mU*mU*mU
B11: G000480: TTR sgRNA modified sequence, Human, SEQ ID No. 87; guide sequence of CR003353 (nucleic acid)
guide: mA*mA*mA*rGrGrCrUrGrCrUrGrArUrGrArCrArCrCrUrGrUrUrUrUrArGrAmGmCmUmAmGmAmAmAmUmAmGmCrArArGrUrUrArArArArUrArArGrGrCrUrArGrUrCrCrGrUrUrArUrCrAmAmCmUmUmGmAmAmAmAmAmGmUmGmGmCmAmCmCmGmAmGmUmCmGmGmUmGmCmU*mU*mU*mU
B12: G000488: TTR sgRNA modified sequence, Human, SEQ ID No. 95; guide sequence of CR003346 (nucleic acid)
guide: mA*mA*mA*rGrUrUrCrUrArGrArUrGrCrUrGrUrCrCrGrGrUrUrUrUrArGrAmGmCmUmAmGmAmAmAmUmAmGmCrArArGrUrUrArArArArUrArArGrGrCrUrArGrUrCrCrGrUrUrArUrCrAmAmCmUmUmGmAmAmAmAmAmGmUmGmGmCmAmCmCmGmAmGmUmCmGmGmUmGmCmU*mU*mU*mU

How the values were obtained:
TTR [1] = test: TTR editing in primary cyno hepatocytes treated with LNP formulated Spy Cas9 mRNA (SEQ ID NO: 2) and sgRNAs (Tables 17, 18); format: cell-based, cynomolgus monkey; details: for 12.5 ng mRNA, 3.9 nM sgRNA Avg % Edit: Table 17, LNP formulated Spy Cas9 mRNA (SEQ ID NO: 2) and sgRNA, 72 hours
Experimental: (§1) Primary liver hepatocytes. Primary human liver hepatocytes (PHH) and primary cynomolgus liver hepatocytes (PCH) (Gibco) were cultured per the manufacturer's protocol (Invitrogen, protocol 11.28.2012). In brief, the cells were thawed and resuspended in hepatocyte thawing medium with supplements (Gibco, Cat. CM7000) followed by centrifugation at 100 g for 10 minutes for human and 80 g for 4 minutes for cyno. The supernatant was discarded and the pelleted cells resuspended in hepatocyte plating medium plus supplement pack (Invitrogen, Cat. A1217601 and CM3000). Cells were counted and plated on Bio-coat collagen I coated 96-well plates (ThermoFisher, Cat. 877272) at a density of 33,000 cells/well for human or 60,000 cells/well for cyno (or 65,000 cells/well when assaying effects on TTR protein, described further below). Plated cells were allowed to settle and adhere for 6 or 24 hours in a tissue culture incubator at 37° C. and 5% CO2 atmosphere. After incubation cells were checked for monolayer formation and media was replaced with hepatocyte culture medium with serum-free supplement pack (Invitrogen, Cat. A1217601 and CM4000).
(§2) In general, the lipid nanoparticle components were dissolved in 100% ethanol with the lipid component of various molar ratios. The RNA cargos were dissolved in 25 mM citrate, 100 mM NaCl, pH 5.0, resulting in a concentration of RNA cargo of approximately 0.45 mg/mL. The LNPs were formulated with a lipid amine to RNA phosphate (N:P) molar ratio of about 4.5 or about 6, with the ratio of mRNA to gRNA at 1:1 by weight.
(§3) The LNPs were formed by microfluidic mixing of the lipid and RNA solutions using a Precision Nanosystems NanoAssemblr™ Benchtop Instrument, according to the manufacturer's protocol. A 2:1 ratio of aqueous to organic solvent was maintained during mixing using differential flow rates. After mixing, the LNPs were collected, diluted in water (approximately 1:1 v/v), held for 1 hour at room temperature, and further diluted with water (approximately 1:1 v/v) before final buffer exchange. The final buffer exchange into 50 mM Tris, 45 mM NaCl, 5% (w/v) sucrose, pH 7.5 (TSS) was completed with PD-10 desalting columns (GE). If required, formulations were concentrated by centrifugation with Amicon 100 kDa centrifugal filters (Millipore). The resulting mixture was then filtered using a 0.2 μm sterile filter. The final LNP was stored at −80° C. until further use.
(§4) To quantitatively determine the efficiency of editing at the target location in the genome, sequencing was utilized to identify the presence of insertions and deletions introduced by gene editing.
(§5) Primers were designed around the target site within the gene of interest (e.g. TTR), and the genomic area of interest was amplified.
(§6) Additional PCR was performed per the manufacturer's protocols (Illumina) to add chemistry for sequencing. The amplicons were sequenced on an Illumina MiSeq instrument. The reads were aligned to a reference genome (e.g., the human reference genome (hg38), the cynomologus reference genome (mf5), the rat reference genome (rn6), or the mouse reference genome (mm10)) after eliminating those having low quality scores. The resulting files containing the reads were mapped to the reference genome (BAM files), where reads that overlapped the target region of interest were selected and the number of wild type reads versus the number of reads which contain an insertion, substitution, or deletion was calculated.
(§7) The editing percentage (e.g., the “editing efficiency” or “percent editing” or “indel frequency”) is defined as the total number of sequence reads with insertions/deletions (“indels”) or substitutions over the total number of sequence reads, including wild type.
(§8) Lipid nanoparticle formulations of modified sgRNAs targeting human TTR and the cyno matched sgRNA sequences were tested on primary human hepatocytes and primary cyno hepatocytes in a dose response curve. Primary human and cyno hepatocytes were plated as described in Example 1. […]

[2] = test system: off-target integration sites; test: Off-target oligo insertion based assay in primary human hepatocytes (Table 30); format: cell-based; details: TTR sgRNAs in PHH, 100 ng Cas9 mRNA, 25 nM sgRNA, 12.5 nM donor oligo
Experimental: Off-target analysis of sgRNAs targeting TTR was performed in primary human hepatocytes (PHH) as described in Example 5, with the following modifications. PHH were plated at a density of 33,000 cells per well on collagen-coated 96-well plates as described in Example 1. Twenty-four hours post plating, cells were washed with media and transfected using Lipofectamine RNAiMAX (ThermoFisher, Cat. 13778150) as described in Example 1. Cells were transfected with a lipoplex containing 100 ng Cas9 mRNA, immediately followed by the addition of another lipoplex containing 25 nM of the sgRNA and 12.5 nM of the donor oligo (0.3 μL/well). Cells were lysed 48 hours post-transfection and gDNA was extracted and analyzed as further described in Example 5. The data is graphically represented in FIG. 20.
Fewer sites were detected in PHH for every guide tested as compared to the HekCas9 cell line, with no unique sites detected in PHH alone.

TTR [3] = test: TTR editing in primary human hepatocytes treated with LNP formulated Spy Cas9 mRNA (SEQ ID NO: 2) and sgRNAs (Table 16); format: cell-based; details: LNP formulated Spy Cas9 mRNA (SEQ ID NO: 2) and sgRNA, 72 hours
Experimental: as §1, §2, §3, §4, §5, §6, §7, §8

Molecule | 12.5 ng mRNA, 3.9 nM sgRNA Avg % Edit (TTR [1]) [%] | # Sites in PHH [2] | 12.5 ng mRNA, 3.9 nM sgRNA % Edit (TTR [1]; LNP formulated Spy Cas9 mRNA (SEQ ID NO: 2) and cyno matched sgRNAs, 72 hours post treatment) [%] | 12.5 ng mRNA, 3.9 nM sgRNA Avg % Edit (TTR [3]) [%]
B1 | 20.20 | 1 |  | 
B2 |  |  | 80.70 | 
B3 | 49.20 | 0 |  | 24.37
B4 |  | 0 |  | 17.37
B5 | 26.13 | 2 |  | 19.10
B6 | 31.87 | 2 |  | 16.85
B7 |  | 0 |  | 61.33
B8 | 14.30 | 0 |  | 6.37
B9 |  | 0 |  | 30.73
B10 | 14.63 | 1 |  | 16.07
B11 | 0.73 | 2 |  | 59.33
B12 |  | 0 |  | 44.80
